B1: CTNND2, Q9UQB3 (peptide)
chain: HYPASPDSWV
B2: CXCR1, P25024 (peptide)
chain: SSSVNVSSNL

molecular target: T1, LNX2_3, Q8N448; assay: holdup assay; design: key: below the threshold = too weak to quantify, mostly under pKd 3.1 to 4; conditions: plain residues with an end cap or a label only (N-terminal biotin on a linker: ado-ado)
T1 sequence (Q8N448 463-564, limits assumed, looked up): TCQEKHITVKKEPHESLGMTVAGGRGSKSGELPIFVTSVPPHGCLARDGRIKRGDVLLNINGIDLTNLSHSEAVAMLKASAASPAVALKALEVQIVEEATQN

Binder	pKd
B1	below the threshold
B2	below the threshold

molecular target: MAGI2_4, Q86UL8; assay: holdup assay; design: key: below the threshold = too weak to quantify, mostly under pKd 3.1 to 4; conditions: plain residues with an end cap or a label only (N-terminal biotin on a linker: ado-ado)
Sequence (Q86UL8 772-865): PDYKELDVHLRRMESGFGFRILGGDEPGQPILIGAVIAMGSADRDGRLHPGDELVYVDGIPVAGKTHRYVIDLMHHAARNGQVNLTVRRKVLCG

Binder	pKd
B1	4.34
B2	below the threshold

molecular target: DLG4_1, P78352; assay: holdup assay; design: key: below the threshold = too weak to quantify, mostly under pKd 3.1 to 4; conditions: plain residues with an end cap or a label only (N-terminal biotin on a linker: ado-ado)
Sequence (P78352 62-152): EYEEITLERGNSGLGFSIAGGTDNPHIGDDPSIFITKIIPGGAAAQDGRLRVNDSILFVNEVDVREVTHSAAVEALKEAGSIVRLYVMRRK

Binder	pKd
B1	4.37
B2	below the threshold

molecular target: T2, TJP3_3, O95049; assay: holdup assay; design: key: below the threshold = too weak to quantify, mostly under pKd 3.1 to 4; conditions: plain residues with an end cap or a label only (N-terminal biotin on a linker: ado-ado)
T2 sequence (O95049 375-456, limits assumed, looked up): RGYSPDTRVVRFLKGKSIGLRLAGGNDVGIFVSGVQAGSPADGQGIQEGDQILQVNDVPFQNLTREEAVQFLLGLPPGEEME

Binder	pKd
B1	4.91
B2	below the threshold

molecular target: FRMPD2_2, Q68DX3; assay: holdup assay; design: key: below the threshold = too weak to quantify, mostly under pKd 3.1 to 4; conditions: plain residues with an end cap or a label only (N-terminal biotin on a linker: ado-ado)
Sequence (Q68DX3 944-1038): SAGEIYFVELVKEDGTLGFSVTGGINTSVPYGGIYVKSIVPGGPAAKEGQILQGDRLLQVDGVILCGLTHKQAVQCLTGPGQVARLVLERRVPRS

Binder	pKd
B1	4.54
B2	below the threshold

molecular target: T3, ARHGEF11, O15085; assay: holdup assay; design: key: below the threshold = too weak to quantify, mostly under pKd 3.1 to 4; conditions: plain residues with an end cap or a label only (N-terminal biotin on a linker: ado-ado)
T3 sequence (O15085 42-136, limits assumed, looked up): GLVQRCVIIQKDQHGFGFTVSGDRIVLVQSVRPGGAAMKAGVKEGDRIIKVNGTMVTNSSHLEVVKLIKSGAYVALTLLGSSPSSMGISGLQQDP

Binder	pKd
B1	3.68
B2	3.75

molecular target: T4, SHANK1, Q9Y566; assay: holdup assay; design: key: below the threshold = too weak to quantify, mostly under pKd 3.1 to 4; conditions: plain residues with an end cap or a label only (N-terminal biotin on a linker: ado-ado)
T4 sequence (Q9Y566 658-767, limits assumed, looked up): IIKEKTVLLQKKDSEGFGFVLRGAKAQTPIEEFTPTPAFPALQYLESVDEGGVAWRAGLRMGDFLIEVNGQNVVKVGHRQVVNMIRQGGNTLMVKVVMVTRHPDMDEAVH

Binder	pKd
B1	below the threshold
B2	3.94

molecular target: PARD3_3, Q8TEW0; assay: holdup assay; design: key: below the threshold = too weak to quantify, mostly under pKd 3.1 to 4; conditions: plain residues with an end cap or a label only (N-terminal biotin on a linker: ado-ado)
Sequence (Q8TEW0 582-685): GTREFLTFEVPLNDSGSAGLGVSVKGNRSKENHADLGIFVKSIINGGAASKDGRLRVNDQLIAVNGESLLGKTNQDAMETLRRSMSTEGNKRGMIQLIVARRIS

Binder	pKd
B1	3.92
B2	below the threshold

molecular target: SCRIB_2, Q14160; assay: holdup assay; design: key: below the threshold = too weak to quantify, mostly under pKd 3.1 to 4; conditions: plain residues with an end cap or a label only (N-terminal biotin on a linker: ado-ado)
Sequence (Q14160 857-960): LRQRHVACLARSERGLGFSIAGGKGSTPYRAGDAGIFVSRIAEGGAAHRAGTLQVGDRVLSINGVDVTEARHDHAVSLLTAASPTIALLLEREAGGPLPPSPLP

Binder	pKd
B1	4.81
B2	below the threshold

molecular target: NHERF4_2, Q86UT5; assay: holdup assay; design: key: below the threshold = too weak to quantify, mostly under pKd 3.1 to 4; conditions: plain residues with an end cap or a label only (N-terminal biotin on a linker: ado-ado)
Sequence (Q86UT5 220-308): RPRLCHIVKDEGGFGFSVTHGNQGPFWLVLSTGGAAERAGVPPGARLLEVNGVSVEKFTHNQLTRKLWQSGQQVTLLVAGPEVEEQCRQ

Binder	pKd
B1	3.55
B2	below the threshold

molecular target: T5, APBA1_1, Q02410; assay: holdup assay; design: key: below the threshold = too weak to quantify, mostly under pKd 3.1 to 4; conditions: plain residues with an end cap or a label only (N-terminal biotin on a linker: ado-ado)
T5 sequence (Q02410 651-752, limits assumed, looked up): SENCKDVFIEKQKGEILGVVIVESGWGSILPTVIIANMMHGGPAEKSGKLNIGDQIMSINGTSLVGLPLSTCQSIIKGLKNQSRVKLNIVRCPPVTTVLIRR

Binder	pKd
B1	below the threshold
B2	below the threshold

molecular target: GRID2IP_1, A4D2P6; assay: holdup assay; design: key: below the threshold = too weak to quantify, mostly under pKd 3.1 to 4; conditions: plain residues with an end cap or a label only (N-terminal biotin on a linker: ado-ado)
Sequence (A4D2P6 1-87): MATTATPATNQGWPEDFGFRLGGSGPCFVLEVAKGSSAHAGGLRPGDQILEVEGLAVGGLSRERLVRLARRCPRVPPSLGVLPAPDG

Binder	pKd
B1	below the threshold
B2	below the threshold

molecular target: Inadl_4, Q8NI35; assay: holdup assay; design: key: below the threshold = too weak to quantify, mostly under pKd 3.1 to 4; conditions: plain residues with an end cap or a label only (N-terminal biotin on a linker: ado-ado)
Sequence (Q8NI35 547-651): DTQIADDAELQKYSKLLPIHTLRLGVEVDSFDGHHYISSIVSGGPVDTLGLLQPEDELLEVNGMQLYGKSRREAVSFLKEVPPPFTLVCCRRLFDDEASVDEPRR

Binder	pKd
B1	below the threshold
B2	below the threshold

molecular target: PTPN3, P26045; assay: holdup assay; design: key: below the threshold = too weak to quantify, mostly under pKd 3.1 to 4; conditions: plain residues with an end cap or a label only (N-terminal biotin on a linker: ado-ado)
Sequence (P26045 505-587): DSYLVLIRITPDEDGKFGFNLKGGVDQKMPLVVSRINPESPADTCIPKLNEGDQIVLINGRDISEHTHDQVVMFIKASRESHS

Binder	pKd
B1	5.07
B2	4.48

molecular target: DLG2_3, Q15700; assay: holdup assay; design: key: below the threshold = too weak to quantify, mostly under pKd 3.1 to 4; conditions: plain residues with an end cap or a label only (N-terminal biotin on a linker: ado-ado)

Binder	pKd
B1	below the threshold
B2	below the threshold

molecular target: NHERF4_1, Q86UT5-2; assay: holdup assay; design: key: below the threshold = too weak to quantify, mostly under pKd 3.1 to 4; conditions: plain residues with an end cap or a label only (N-terminal biotin on a linker: ado-ado)
Sequence (Q86UT5 other isoform, or with tags, fused parts or gaps): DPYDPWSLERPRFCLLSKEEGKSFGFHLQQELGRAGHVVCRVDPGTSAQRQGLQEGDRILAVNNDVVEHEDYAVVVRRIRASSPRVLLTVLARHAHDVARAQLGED

Binder	pKd
B1	below the threshold
B2	3.74

molecular target: Inadl_2, Q8NI35; assay: holdup assay; design: key: below the threshold = too weak to quantify, mostly under pKd 3.1 to 4; conditions: plain residues with an end cap or a label only (N-terminal biotin on a linker: ado-ado)
Sequence (Q8NI35 238-335): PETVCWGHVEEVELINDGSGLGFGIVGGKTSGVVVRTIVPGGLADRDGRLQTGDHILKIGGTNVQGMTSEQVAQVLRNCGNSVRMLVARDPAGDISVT

Binder	pKd
B1	below the threshold
B2	below the threshold

molecular target: Inadl_8, Q8NI35; assay: holdup assay; design: key: below the threshold = too weak to quantify, mostly under pKd 3.1 to 4; conditions: plain residues with an end cap or a label only (N-terminal biotin on a linker: ado-ado)
Sequence (Q8NI35 1425-1530): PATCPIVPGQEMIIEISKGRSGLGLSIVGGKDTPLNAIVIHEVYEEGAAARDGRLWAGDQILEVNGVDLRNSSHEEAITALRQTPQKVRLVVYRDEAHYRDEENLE

Binder	pKd
B1	4.12
B2	below the threshold

molecular target: T6, RAPGEF6, Q8TEU7; assay: holdup assay; design: key: below the threshold = too weak to quantify, mostly under pKd 3.1 to 4; conditions: plain residues with an end cap or a label only (N-terminal biotin on a linker: ado-ado)
T6 sequence (Q8TEU7 525-625, limits assumed, looked up): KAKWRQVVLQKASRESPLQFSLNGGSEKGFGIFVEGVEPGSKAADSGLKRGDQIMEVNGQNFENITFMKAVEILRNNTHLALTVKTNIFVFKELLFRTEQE

Binder	pKd
B1	below the threshold
B2	below the threshold

molecular target: MAGI2_3, Q86UL8; assay: holdup assay; design: key: below the threshold = too weak to quantify, mostly under pKd 3.1 to 4; conditions: plain residues with an end cap or a label only (N-terminal biotin on a linker: ado-ado)
Sequence (Q86UL8 600-682): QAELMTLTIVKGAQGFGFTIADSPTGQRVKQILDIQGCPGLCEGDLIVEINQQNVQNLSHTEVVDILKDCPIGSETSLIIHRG

Binder	pKd
B1	3.58
B2	3.5

molecular target: FRMPD2_1, Q68DX3; assay: holdup assay; design: key: below the threshold = too weak to quantify, mostly under pKd 3.1 to 4; conditions: plain residues with an end cap or a label only (N-terminal biotin on a linker: ado-ado)
Sequence (Q68DX3 770-861): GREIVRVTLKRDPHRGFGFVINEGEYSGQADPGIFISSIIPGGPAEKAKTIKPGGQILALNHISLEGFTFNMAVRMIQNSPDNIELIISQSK

Binder	pKd
B1	below the threshold
B2	below the threshold

molecular target: T7, LIN7C, Q9NUP9; assay: holdup assay; design: key: below the threshold = too weak to quantify, mostly under pKd 3.1 to 4; conditions: plain residues with an end cap or a label only (N-terminal biotin on a linker: ado-ado)
T7 sequence (Q9NUP9 88-185, limits assumed, looked up): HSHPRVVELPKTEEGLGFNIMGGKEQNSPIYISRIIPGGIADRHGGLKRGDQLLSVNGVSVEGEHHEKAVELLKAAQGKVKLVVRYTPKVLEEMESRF

Binder	pKd
B1	below the threshold
B2	below the threshold

molecular target: LDB3, O75112; assay: holdup assay; design: key: below the threshold = too weak to quantify, mostly under pKd 3.1 to 4; conditions: plain residues with an end cap or a label only (N-terminal biotin on a linker: ado-ado)
Sequence (O75112 1-94): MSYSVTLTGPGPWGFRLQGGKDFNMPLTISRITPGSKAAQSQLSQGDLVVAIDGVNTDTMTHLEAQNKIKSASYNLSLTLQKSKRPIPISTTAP

Binder	pKd
B1	3.74
B2	below the threshold

molecular target: PDLIM1, O00151; assay: holdup assay; design: key: below the threshold = too weak to quantify, mostly under pKd 3.1 to 4; conditions: plain residues with an end cap or a label only (N-terminal biotin on a linker: ado-ado)
Sequence (O00151 1-87): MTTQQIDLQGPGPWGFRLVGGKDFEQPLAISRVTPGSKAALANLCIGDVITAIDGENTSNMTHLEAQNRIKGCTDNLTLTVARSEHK

Binder	pKd
B1	4.06
B2	below the threshold

molecular target: T8, LRRC7, Q96NW7; assay: holdup assay; design: key: below the threshold = too weak to quantify, mostly under pKd 3.1 to 4; conditions: plain residues with an end cap or a label only (N-terminal biotin on a linker: ado-ado)
T8 sequence (Q96NW7 1440-1537, limits assumed, looked up): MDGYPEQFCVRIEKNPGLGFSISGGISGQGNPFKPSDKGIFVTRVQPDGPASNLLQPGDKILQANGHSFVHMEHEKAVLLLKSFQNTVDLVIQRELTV

Binder	pKd
B1	4.97
B2	below the threshold

molecular target: T9, APBA1_2, Q02410; assay: holdup assay; design: key: below the threshold = too weak to quantify, mostly under pKd 3.1 to 4; conditions: plain residues with an end cap or a label only (N-terminal biotin on a linker: ado-ado)
T9 sequence (Q02410 742-832, limits assumed, looked up): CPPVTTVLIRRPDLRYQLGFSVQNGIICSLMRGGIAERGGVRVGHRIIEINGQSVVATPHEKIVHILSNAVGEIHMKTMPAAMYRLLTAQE

Binder	pKd
B1	4.5
B2	below the threshold

molecular target: MAGI3_2, Q5TCQ9; assay: holdup assay; design: key: below the threshold = too weak to quantify, mostly under pKd 3.1 to 4; conditions: plain residues with an end cap or a label only (N-terminal biotin on a linker: ado-ado)
Sequence (Q5TCQ9 398-503): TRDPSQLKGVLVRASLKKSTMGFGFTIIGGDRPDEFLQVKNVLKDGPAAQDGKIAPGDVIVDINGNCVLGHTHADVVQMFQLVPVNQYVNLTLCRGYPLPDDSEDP

Binder	pKd
B1	3.86
B2	below the threshold

molecular target: T10, ARHGAP21, Q5T5U3; assay: holdup assay; design: key: below the threshold = too weak to quantify, mostly under pKd 3.1 to 4; conditions: plain residues with an end cap or a label only (N-terminal biotin on a linker: ado-ado)
T10 sequence (Q5T5U3 45-169, limits assumed, looked up): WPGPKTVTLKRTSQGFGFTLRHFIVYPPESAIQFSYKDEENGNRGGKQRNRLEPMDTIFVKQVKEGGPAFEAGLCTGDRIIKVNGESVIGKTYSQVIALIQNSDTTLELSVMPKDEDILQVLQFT

Binder	pKd
B1	below the threshold
B2	3.77

— article PMC9482650, “Quantitative fragmentomics allow affinity mapping of interactomes” (Nature Communications, 2022)
